Among the targets are FOXO3a-DBD S253D (Homo sapiens, UniProt O43524 158-253, S253D); FOXO3a-DBD RRR/AAA (Homo sapiens, UniProt O43524 158-253, R248A;R249A;R250A); FOXO3a-DBD K245A (Homo sapiens, UniProt O43524 158-253, K245A); FOXO3a-DBD K242A (Homo sapiens, UniProt O43524 158-253, K242A); FOXO3a-DBD 158-240 (Homo sapiens, UniProt O43524 158-240); FOXO3a-DBD WT (Homo sapiens, UniProt O43524 158-253).

Common to all, as to experiment: fluorescence anisotropy
For orientation: Fluorescence polarisation rises when a labelled molecule tumbles more slowly, as on binding a larger partner.

FOXO3a-DBD WT, sequence (O43524 158-253): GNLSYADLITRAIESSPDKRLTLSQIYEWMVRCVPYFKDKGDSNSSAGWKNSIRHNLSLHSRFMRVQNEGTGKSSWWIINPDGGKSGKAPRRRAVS
FOXO3a-DBD S253D, sequence (O43524 158-253 S253D): as the sequence (O43524 158-253) above, with S96D counted along it
FOXO3a-DBD K242A, sequence (O43524 158-253 K242A): as the sequence (O43524 158-253) above, with K85A counted along it
FOXO3a-DBD RRR/AAA, sequence (O43524 158-253 R248A/R249A/R250A): as the sequence (O43524 158-253) above, with R91A, R92A, R93A counted along it
FOXO3a-DBD K245A, sequence (O43524 158-253 K245A): as the sequence (O43524 158-253) above, with K88A counted along it
FOXO3a-DBD 158-240, sequence (O43524 158-240): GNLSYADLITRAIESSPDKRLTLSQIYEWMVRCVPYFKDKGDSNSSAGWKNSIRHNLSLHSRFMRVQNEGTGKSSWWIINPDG

B1: 26-bp FOXO consensus FA duplex (dsDNA)
DNA 1: CGCATCCTATGTAAACAACTCGAGTC
DNA 2: GACTCGAGTTGTTTACATAGGATGCG
On to B1, for which the Kd with FOXO3a-DBD S253D stood at 549 ± 55 nM; in the data set with FOXO3a-DBD RRR/AAA it was 1180 ± 168 nM; in the data set with FOXO3a-DBD K245A, 511 ± 63 nM; with FOXO3a-DBD K242A it was 399 ± 25 nM; with FOXO3a-DBD 158-240, 1490 ± 197 nM; with FOXO3a-DBD WT, 295 ± 26 nM.

Broadly, the Kd is the free concentration of one partner at which half of the binding sites on the other are occupied at equilibrium, for simple one-to-one binding.

The values are drawn from PMC2175300.
